Reference: article PMC7979498 (2022)

Legend:
ROS1 ECD = target: T1, ROS1 ECD (Homo sapiens, UniProt P08922); assay: saturation binding assay
T1 chain: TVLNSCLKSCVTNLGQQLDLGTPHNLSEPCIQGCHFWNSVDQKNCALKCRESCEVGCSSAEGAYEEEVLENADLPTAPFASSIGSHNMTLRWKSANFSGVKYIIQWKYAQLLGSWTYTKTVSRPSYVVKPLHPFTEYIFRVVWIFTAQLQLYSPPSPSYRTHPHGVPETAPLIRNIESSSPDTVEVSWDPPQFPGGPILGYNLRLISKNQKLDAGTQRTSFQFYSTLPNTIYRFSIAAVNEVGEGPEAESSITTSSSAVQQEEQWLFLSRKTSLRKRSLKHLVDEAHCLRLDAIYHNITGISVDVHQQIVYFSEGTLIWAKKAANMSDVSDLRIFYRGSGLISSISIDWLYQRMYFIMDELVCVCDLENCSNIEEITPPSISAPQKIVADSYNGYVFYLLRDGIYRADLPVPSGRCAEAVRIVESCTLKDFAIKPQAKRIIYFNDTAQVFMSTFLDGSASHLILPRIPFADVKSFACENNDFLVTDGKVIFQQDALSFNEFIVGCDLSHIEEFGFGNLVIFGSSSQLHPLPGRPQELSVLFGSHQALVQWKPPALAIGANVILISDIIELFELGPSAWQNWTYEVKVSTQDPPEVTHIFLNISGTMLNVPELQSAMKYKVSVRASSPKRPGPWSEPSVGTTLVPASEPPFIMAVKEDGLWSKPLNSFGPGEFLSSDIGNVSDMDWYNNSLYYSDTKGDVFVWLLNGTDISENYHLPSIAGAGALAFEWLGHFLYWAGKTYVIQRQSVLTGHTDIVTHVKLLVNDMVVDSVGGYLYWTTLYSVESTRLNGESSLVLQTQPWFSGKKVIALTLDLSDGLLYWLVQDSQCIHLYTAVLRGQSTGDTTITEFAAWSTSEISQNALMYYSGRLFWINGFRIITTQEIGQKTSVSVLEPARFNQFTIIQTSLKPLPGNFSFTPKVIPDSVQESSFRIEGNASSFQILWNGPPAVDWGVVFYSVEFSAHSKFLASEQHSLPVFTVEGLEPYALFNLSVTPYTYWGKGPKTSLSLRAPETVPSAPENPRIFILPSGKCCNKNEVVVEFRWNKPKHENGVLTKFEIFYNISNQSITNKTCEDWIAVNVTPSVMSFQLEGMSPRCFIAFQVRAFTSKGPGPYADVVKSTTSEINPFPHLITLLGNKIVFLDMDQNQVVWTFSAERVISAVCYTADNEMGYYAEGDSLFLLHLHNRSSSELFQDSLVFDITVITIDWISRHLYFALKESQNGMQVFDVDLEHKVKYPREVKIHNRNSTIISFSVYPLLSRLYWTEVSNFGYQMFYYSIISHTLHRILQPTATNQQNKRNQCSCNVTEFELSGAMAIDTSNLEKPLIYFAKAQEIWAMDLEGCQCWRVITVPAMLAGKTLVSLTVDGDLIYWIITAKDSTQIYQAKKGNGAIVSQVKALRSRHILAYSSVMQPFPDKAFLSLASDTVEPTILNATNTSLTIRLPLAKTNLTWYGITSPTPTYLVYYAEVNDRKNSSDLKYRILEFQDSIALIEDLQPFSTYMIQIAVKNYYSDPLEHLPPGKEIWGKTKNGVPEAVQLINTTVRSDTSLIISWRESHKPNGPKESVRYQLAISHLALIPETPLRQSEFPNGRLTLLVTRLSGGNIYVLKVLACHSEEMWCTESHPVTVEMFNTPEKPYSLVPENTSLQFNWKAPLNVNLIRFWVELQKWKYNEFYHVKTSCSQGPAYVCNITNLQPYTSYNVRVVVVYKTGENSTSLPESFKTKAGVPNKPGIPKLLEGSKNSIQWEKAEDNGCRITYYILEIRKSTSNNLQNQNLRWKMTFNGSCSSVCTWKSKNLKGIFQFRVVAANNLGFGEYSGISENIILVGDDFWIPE

ROS1 = target: T2, ROS1 (Homo sapiens, UniProt P08922); assay: saturation binding assay
T2 chain: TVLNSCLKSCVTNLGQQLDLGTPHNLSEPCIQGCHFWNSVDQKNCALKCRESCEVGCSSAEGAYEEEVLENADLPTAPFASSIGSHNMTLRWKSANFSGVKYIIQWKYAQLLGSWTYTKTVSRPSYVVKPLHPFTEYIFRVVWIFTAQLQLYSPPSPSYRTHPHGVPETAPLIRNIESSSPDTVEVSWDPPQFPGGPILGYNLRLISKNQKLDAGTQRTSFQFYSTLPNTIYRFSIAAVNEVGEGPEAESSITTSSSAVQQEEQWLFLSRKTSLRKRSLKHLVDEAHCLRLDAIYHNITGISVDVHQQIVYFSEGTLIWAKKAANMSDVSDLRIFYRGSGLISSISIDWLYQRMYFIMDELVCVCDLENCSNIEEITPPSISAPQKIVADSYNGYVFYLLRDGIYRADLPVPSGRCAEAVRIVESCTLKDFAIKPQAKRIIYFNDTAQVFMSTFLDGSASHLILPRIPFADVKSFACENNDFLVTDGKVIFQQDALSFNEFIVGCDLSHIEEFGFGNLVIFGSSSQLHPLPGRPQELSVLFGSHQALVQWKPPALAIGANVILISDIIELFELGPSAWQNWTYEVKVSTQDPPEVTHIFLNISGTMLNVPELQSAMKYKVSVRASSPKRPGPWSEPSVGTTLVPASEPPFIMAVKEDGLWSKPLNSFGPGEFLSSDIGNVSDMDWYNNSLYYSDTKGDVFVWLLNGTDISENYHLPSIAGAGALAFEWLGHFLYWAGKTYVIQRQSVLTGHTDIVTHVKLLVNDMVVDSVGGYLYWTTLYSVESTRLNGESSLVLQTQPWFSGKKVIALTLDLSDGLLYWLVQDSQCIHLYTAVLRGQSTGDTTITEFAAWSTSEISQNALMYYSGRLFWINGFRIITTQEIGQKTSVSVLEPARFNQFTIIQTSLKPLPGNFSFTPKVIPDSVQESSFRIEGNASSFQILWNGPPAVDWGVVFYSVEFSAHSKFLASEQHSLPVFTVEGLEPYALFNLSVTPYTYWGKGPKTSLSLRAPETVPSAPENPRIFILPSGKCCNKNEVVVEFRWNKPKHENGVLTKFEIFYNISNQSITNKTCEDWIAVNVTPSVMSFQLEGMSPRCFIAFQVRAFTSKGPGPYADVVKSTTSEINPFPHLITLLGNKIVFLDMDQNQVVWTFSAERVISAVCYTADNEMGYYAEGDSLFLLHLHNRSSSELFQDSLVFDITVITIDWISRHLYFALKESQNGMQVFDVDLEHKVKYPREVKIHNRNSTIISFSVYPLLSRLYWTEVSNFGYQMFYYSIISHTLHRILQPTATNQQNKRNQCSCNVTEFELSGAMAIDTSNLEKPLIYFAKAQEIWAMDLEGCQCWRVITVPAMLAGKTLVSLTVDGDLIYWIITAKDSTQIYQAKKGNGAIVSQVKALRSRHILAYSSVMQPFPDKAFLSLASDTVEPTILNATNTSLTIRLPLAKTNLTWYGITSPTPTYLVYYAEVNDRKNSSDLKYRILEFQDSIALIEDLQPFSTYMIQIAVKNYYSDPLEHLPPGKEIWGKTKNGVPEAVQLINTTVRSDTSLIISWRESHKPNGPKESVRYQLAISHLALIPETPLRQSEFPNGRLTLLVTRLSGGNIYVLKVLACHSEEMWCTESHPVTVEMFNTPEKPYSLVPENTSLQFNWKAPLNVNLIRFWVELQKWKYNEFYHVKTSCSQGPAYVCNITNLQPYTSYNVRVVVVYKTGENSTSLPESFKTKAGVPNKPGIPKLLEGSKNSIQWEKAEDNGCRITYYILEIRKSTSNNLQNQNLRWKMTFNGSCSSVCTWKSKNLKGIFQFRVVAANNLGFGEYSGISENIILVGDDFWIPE

Kd (ROS1 ECD): 28.5 nM | Kd (ROS1): 33.5 nM
B1: RNase7 (protein)
chain: KPKGMTSSQWFKIQHMQPSPQACNSAMKNINKHTKRCKDLNTFLHEPFSSVAATCQTPKIACKNGDKNCHQSHGAVSLTMCKLTSGKHPNCRYKEKRQNKSYVVACKPPQKKDSQQFHLVPVHLDRVL
